Residue numbers refer to the chain shown, from its start. Names may count otherwise.
B1: GST-Swiprosin-1 fusion protein (wild type) (natural protein)
chain: MATDELATKLSRRLQMEGEGGGETPEQPGLNGAAAAAAGAPDEAAEALGSADCELSAKLLRRADLNQGIGEPQSPSRRVFNPYTEFKEFSRKQIKDMEKMFKQYDAGRDGFIDLMELKLMMEKLGAPQTHLGLKNMIKEVDEDFDSKLSFREFLLIFRKAAAGELQEDSGLCVLARLSEIDVSSEGVKGAKSFFEAKVQAINVSSRFEEEIKAEQEERKKQAEEMKQRKAAFKELQSTFK
notes: Swiprosin-1 (EF hand domain containing 2, EFHD2), human (hSwiprosin-1); Cloned into pGEX4T1; also called GST-Swiprosin-1-WT; GST-Sw-WT; source: purified GST fusion protein (pGEX4T1); also used on agarose beads
B2: GST-Swiprosin-1 S183A (phosphorylation-deficient mutant) (natural protein)
chain: B1 chain with S183A
notes: Swiprosin-1 (EFHD2), human (hSwiprosin-1); also called GST-Sw-S183A; source: purified GST fusion protein (pGEX4T1)
B3: GST-Swiprosin-1 S183E (phosphorylation-mimicking mutant) (natural protein)
chain: B1 chain with S183E
notes: Swiprosin-1 (EFHD2), human (hSwiprosin-1); also called GST-Sw-S183E; source: purified GST fusion protein (pGEX4T1)

These binders were tested against F-actin assembled from rabbit skeletal muscle G-actin (rabbit, UniProt P68135 1-377) (assay: co-sedimentation; purified GST or GST-Swiprosin-1 proteins incubated with 5 uM G-actin in actin polymerization buffer (MgCl2, KCl, ATP) at 25 C to assemble filaments; ultracentrifuged at 45,000 rpm; supernatant and pellet by SDS-PAGE, Coomassie). Settings: both partners purified.

Row | Binder | binding result
1 | B1 | binds
2 | B2 | binds
3 | B3 | binds
